Measurements taken from patent US20190381088, “ANTI-IL-17 APTAMER HAVING IMPROVED RETENTION IN BLOOD” (ZENYAKU KOGYO CO., LTD., published 2019).

T1: IL-17 (human IL-17) (Homo sapiens, UniProt Q16552 Q16552:24-155)
T1 sequence: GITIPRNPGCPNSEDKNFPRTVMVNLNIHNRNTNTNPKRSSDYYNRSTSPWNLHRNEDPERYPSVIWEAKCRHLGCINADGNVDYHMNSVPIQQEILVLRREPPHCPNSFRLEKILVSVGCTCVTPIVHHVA

B1: Example sequence 1 (aptamer No. 8) PEG-linker-spacer-brancher (mixed)
mixed: GGGUAGCCGGAGGAGTCAGTAAUCGGUACCC
modifications: 2'-OMe at 1-4,7,8,10,13,14,23-26,28; 2'-F at 11,17,18,27; PS at g6; DNA at A5,G9,T16,T20,C29-C31; rest 2'-OH RNA; 3' idT (stated for in vivo tests); 5' symmetrical brancher with spacer + ssH amino linker + 2 x 40 kDa branched PEG (80 kDa total)
B2: Example sequence 1 (aptamer No. 8) nucleic acid alone (mixed)
mixed: B1 mixed
modifications: 2'-OMe at 1-4,7,8,10,13,14,23-26,28; 2'-F at 11,17,18,27; PS at g6; DNA at A5,G9,T16,T20,C29-C31; rest 2'-OH RNA; no PEG
B3: Example sequence 2 (aptamer No. 48) PEG-linker-spacer-brancher (mixed)
mixed: B1 mixed
modifications: 2'-OMe at 1-4,7,8,10,13,14,23-26,28; 2'-F at 17,27; DNA at A5,G9,T16,T20,C29-C31; rest 2'-OH RNA; 3' idT (stated for in vivo tests); 5' symmetrical brancher with spacer + ssH amino linker + 2 x 40 kDa branched PEG (80 kDa total)
B4: Example sequence 4 (aptamer No. 93) nucleic acid alone (mixed)
mixed: B1 mixed
modifications: 2'-OMe at 1-4,7,8,10,13,14,23-26,28-31; 2'-F at 11,17,18,27; PS at g6; DNA at A5,G9,T16,T20; rest 2'-OH RNA; no PEG
B5: Example sequence 4 (aptamer No. 93) PEG-linker-spacer-brancher (mixed)
mixed: B1 mixed
modifications: 2'-OMe at 1-4,7,8,10,13,14,23-26,28-31; 2'-F at 11,17,18,27; PS at g6; DNA at A5,G9,T16,T20; rest 2'-OH RNA; 3' idT (stated for in vivo tests); 5' symmetrical brancher with spacer + ssH amino linker + 2 x 40 kDa branched PEG (80 kDa total)

Experiments:
IL-17 (human IL-17) [1] = biological target: T1, IL-17 (human IL-17); experiment: cell_activity; inhibition of IL-17 (10 ng/mL) + mouse TNF induced IL-6 in NIH3T3 cells, 37 C preincubation 30 min; conditions: chain copies: 2 inferred (homodimer)
Experimental: (§1) Human IL-17 (10 ng/mL) and aptamers diluted to various concentrations were pre-incubated at 37° C. for 30 min, and added to NIH3T3 cells (ATCC, CRL1658, 1.25×10⁵ cell/mL) together with mouse TNF (2 ng/mL). Then, after incubation for 24 hr, the culture supernatant was collected. After preservation at −70° C., the amount of produced IL-6 was measured by the ELISA method. The IL-17 inhibitory action of each aptamer was evaluated from the amount of produced IL-6.
A microtiter plate for ELISA was coated with rat anti-mouse IL-6 antibody (BD Biosciences, 2 μg/mL; 100 μL/well) diluted with PBS, and incubated at 4° C. overnight. The next day, the microtiter plate was washed 3 times with PBS/0.05% Tween 20, and blocked with PBS/1% BSA (200 μL/well) at room temperature for 2 hr. Then, the plate was washed 3 times with PBS/0.05% Tween 20. Recombinant mouse IL-6 (BD Biosciences; 100 μL/well) serially diluted with PBS/1% BSA/0.05% Tween 20 or culture supernatants (100 μL/well) were added to the plate. After incubation at room temperature for 2 hr, the plate was washed 3 times with PBS/0.05% Tween 20. Then, 100 μL/well of biotin conjugated rat anti-mouse IL-6 antibody (BD Biosciences) was added at final dilution of 1/500, and the mixture was reacted at room temperature for 1 hr. After washing 3 times with PBS/0.05% Tween 20, 100 μL/well of alkaline phosphatase conjugated streptavidin was added at final dilution of 1/1000. After 30 min at room temperature, the plate was again washed 4 times with PBS/0.05% Tween 20, and a substrate (1-Step PNPP; Thermo Fisher Scientific Inc; 100 μL/well) was added. After 15 min, aqueous sodium hydroxide solution (2N: 50 μL/well) was added to stop the reaction, and the plate was read on a microtiter reader (Bio-Rad) by using a 405 nm filter.

IL-17 (human IL-17) [2] = biological target: T1, IL-17 (human IL-17); experiment: cell_activity; nucleic acid alone; IL-6 release from NIH3T3 cells; conditions: chain copies: 2 inferred (homodimer)
Experimental: Aptamers in which a brancher, a spacer, an ssH amino linker were added to the nucleic acid sequences of Example sequences 1, 2, 3 and 4, and 40 kDa 2 branched PEG was added (total PEG molecular weight: 80 kDa each) were synthesized (FIG. 1 structure 1). The IL-17 neutralization activity of each aptamer was measured along with the aptamer having the original nucleic acid sequence alone. The evaluation was based on the measurement of the amount of IL-6 released in the cultured cells by the stimulation of IL-17 and TNFα to the cells.
as §1
A microtiter plate for ELISA was coated with rat anti-mouse IL-6 antibody (BD Biosciences, 2 μg/mL; 100 μL/well) diluted with PBS, and incubated at 4° C. overnight. The next day, the microtiter plate was washed 3 times with PBS/0.05% Tween 20, and blocked with PBS/1% BSA (200 μL/well) at room temperature for 2 hr. Then, the plate was washed 3 times with PBS/0.05% Tween 20. […]

Binder	IC50 (IL-17 (human IL-17) [1]) [pM]	IC50 (IL-17 (human IL-17) [2]) [pM]
B1	41	–
B2	–	223
B3	180	–
B4	–	123
B5	60	–
